Source: paper PMC8354229
Values joined by “and” are separate entries in the source; they are usually repeats but may differ in a detail not shown here. Equal values may be shown once.

T1: HIV-1 Vpr (WT), expressed from pNL4-3unc (HIV-1 (NL4-3-based proviral plasmid)), P12520
T1 chain: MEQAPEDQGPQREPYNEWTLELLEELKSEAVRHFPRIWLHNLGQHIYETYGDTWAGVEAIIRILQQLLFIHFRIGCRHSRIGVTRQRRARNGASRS


What was measured:
[1] = target: HIV-1 Vpr (WT), expressed from pNL4-3unc (UniProt P12520); experiment: immunoblot of virions (Vpr incorporation, Vpr/CA ratio, LI-COR quantification); settings: equivalent RT units of virus concentrated by ultracentrifugation through a sucrose cushion; parent: est. 100; read off a plot
[2] = target: HIV-1 Gag p6 Mutant 4 (FRFG to alanines) (HIV-1 (NL4-3-based proviral plasmid)) (UniProt P12493); experiment: virion incorporation (virions pelleted through sucrose, immunoblot); virus from 293T cells transfected with pNL4-3unc proviral plasmids (Gag and Vpr from the same construct); concentrated through a 20% (w/v) sucrose cushion, 2 h, 10,000 g, 4°C; equivalent RT units on SDS-PAGE; anti-Vpr and anti-CA immunoblot; Vpr/CA ratio relative to WT virions (LI-COR)
[3] = target: HIV-1 Gag with WT p6, expressed from pNL4-3unc (HIV-1 (NL4-3-based proviral plasmid)) (UniProt P12493); experiment: as above
[4] = target: HIV-1 Gag p6 Mutant 11 (LXXL to alanines) (HIV-1 (NL4-3-based proviral plasmid)) (UniProt P12493); experiment: as above
[5] = target: HIV-1 Gag p6 Mutant 12 (alanine substitutions in the LXXLF motif) (HIV-1 (NL4-3-based proviral plasmid)) (UniProt P12493); experiment: as above
[6] = target: T1, HIV-1 Vpr (WT), expressed from …; experiment: cross-linking; virions pelleted through sucrose, 1% formaldehyde in PBS 20 min at room temperature, quenched with 250 mM Tris-HCl pH 7.5, pelleted again through sucrose, SDS-PAGE and anti-Vpr immunoblot; settings: remark: other sources report otherwise

Molecule	percent of parent [1] [% WT]	also measured
HIV-1 Gag with WT p6, expressed from pNL4-3unc (from UniProt P12493) P49A; S50A; S51A; Q52A	76	–
HIV-1 Gag with WT p6, expressed from pNL4-3unc (from UniProt P12493) T23A; P24A; S25A; Q26A	59	–
HIV-1 Gag with WT p6, expressed from pNL4-3unc (from UniProt P12493) P11A; E12A; E13A; S14A	62	–
HIV-1 Gag with WT p6, expressed from pNL4-3unc (from UniProt P12493) E19A; E20A; T21A; T22A	52	–
HIV-1 Gag with WT p6, expressed from pNL4-3unc (from UniProt P12493) P37A; L38A; S40A	62	–
HIV-1 Gag with WT p6, expressed from pNL4-3unc (from UniProt P12493) K27A; Q28A; E29A; P30A	93	–
HIV-1 Vpr L67A (from UniProt P12520 1-96) (natural protein)	–	fold lower Vpr packaging than the same p6 mutant with WT Vpr [2]: > 10 fold; fold reduction of Vpr incorporation against WT Vpr [3]: 2 fold; fold lower Vpr packaging than the same p6 mutant with WT Vpr [4]: > 10 fold
HIV-1 Gag with WT p6, expressed from pNL4-3unc (from UniProt P12493) E34A; L35A; Y36A	73	–
HIV-1 Gag with WT p6, expressed from pNL4-3unc (from UniProt P12493) I31A; D32A; K33A	90	–
HIV-1 Gag with WT p6, expressed from pNL4-3unc (from UniProt P12493) R4A; P5A; E6A	85	–
HIV-1 Vpr (WT), expressed from pNL4-3unc (from UniProt P12520 1-96) (natural protein)	–	Vpr incorporated, % of WT virions (Vpr/CA ratio) [2]: < 30%; Vpr incorporated, % of WT virions (Vpr/CA ratio) [4]: < 30%; Vpr incorporated, % of WT virions (Vpr/CA ratio) [5]: < 30%
HIV-1 Vpr (WT), expressed from pNL4-3unc, P12520 1-96 (natural protein) MEQAPEDQGPQREPYNEWTLELLEELKSEAVRHFPRIWLHNLGQHIYETYGDTWAGVEAIIRILQQLLFIHFRIGCRHSRIGVTRQRRARNGASRS	–	stoichiometry N [6]: 2 and 3
